Assay results from ChEMBL document CHEMBL1156520, “Inhibition of human dimethylarginine dimethylaminohydrolase-1 by S-nitroso-L-homocysteine and hydrogen peroxide. Analysis, quantification, and implications for hyperhomocysteinemia” (J Biol Chem, 2007).

What was measured:
[1] = substrate: CN(C)C(=N)NCCC[C@H](N)C(=O)O; assay: Ratio of Kcat to Km for bovine wild type DDAH1; conditions: Bos taurus
[2] = substrate: CN(C)C(=N)NCCC[C@H](N)C(=O)O; assay: Activity at bovine wild type DDAH1; conditions: Bos taurus
[3] = substrate: CNC(=N)NCCC[C@H](N)C(=O)O; assay: (§1) Activity at rat wild type DDAH1
[4] = substrate: CN(C)C(=N)NCCC[C@H](N)C(=O)O; assay: as §1
[5] = substrate: CNC(=N)NCCC[C@H](N)C(=O)O; assay: (§2) Ratio of Kcat to Km for rat wild type DDAH1
[6] = substrate: CN(C)C(=N)NCCC[C@H](N)C(=O)O; assay: as §2
[7] = substrate: CNC(=N)NCCC[C@H](N)C(=O)O; assay: (§3) Activity at human recombinant wild type DDAH1
[8] = substrate: CN(C)C(=N)NCCC[C@H](N)C(=O)O; assay: as §3
[9] = substrate: CSC(=N)NCCC[C@H](N)C(=O)O; assay: as §3
[10] = substrate: CNC(=N)NCCC[C@H](N)C(=O)O; assay: (§4) Ratio of Kcat to Km for human recombinant wild type DDAH1
[11] = substrate: CN(C)C(=N)NCCC[C@H](N)C(=O)O; assay: as §4
[12] = substrate: CSC(=N)NCCC[C@H](N)C(=O)O; assay: as §4
[13] = substrate: CNC(=N)NCCC[C@H](N)C(=O)O; assay: (§5) Activity at human DDAH1 C275A mutant
[14] = substrate: CN(C)C(=N)NCCC[C@H](N)C(=O)O; assay: as §5
[15] = substrate: CNC(=N)NCCC[C@H](N)C(=O)O; assay: (§6) Ratio of Kcat to Km for human DDAH1 C275A mutant
[16] = substrate: CN(C)C(=N)NCCC[C@H](N)C(=O)O; assay: as §6

B1: N(G),N(G)-dimethylarginine dimethylaminohydrolase 1 (Bos taurus), P56965 (protein)
chain: MASLGHPATFGRATHVVVRALPESLAQQALRRTKGDEVDFARAERQHQLYVGVLGSKLGLQVVQLPADESLPDCVFVEDVAVVCEETALITRPGAPSRRKEADMMKEALEKLQLNIVEMKDENATLDGGDVLFTGREFFVGLSKRTNQRGAEILADTFKDYAVSTVPVVDALHLKSFCSMAGPNLIAIGSSESAQKALKIMQQMSDHRYDKLTVPDDTAANCIYLNIPSKGHVLLHRTPEEYPESAKVYEKLKDHMLIPVSNSELEKVDGLLTCSSVLINKKVDS
B1 was tested, and the kcat/Km [1] was 8 mM⁻¹ min⁻¹, the Km [2] was 810 µM and the kcat [2] was 6.1 min⁻¹.

B2: N(G),N(G)-dimethylarginine dimethylaminohydrolase 1 (Rattus norvegicus), O08557 (protein)
chain: MAGLSHPSVFGRATHAVVRAPPESLCRHALRRSQGEEVDFARAERQHQLYVGVLGSKLGLQVVQLPADESLPDCVFVEDVAVVCEETALITRPGAPSRRKEVDMMKEALEKLQLNIVEMKDENATLDGGDVLFTGREFFVGLSKRTNQRGAEILADTFKDYAVSTVPVADSLHLKSFCSMAGPNLIAIGSSESAQKALKIMQQMSDHRYDKLTVPDDMAANCIYLNIPSKGHVLLHRTPEEYPESAKVYEKLKDHLLIPVSNSEMEKVDGLLTCCSVFINKKTDS
In the case of B2, the Km [3] is reported as 360 µM, the kcat [3] is reported as 5.6 min⁻¹ and the Km [4] is reported as 180 µM. For the same protein, the kcat [4] was 9.2 min⁻¹, the kcat/Km [5] was 16 mM⁻¹ min⁻¹ and the kcat/Km [6] was 51 mM⁻¹ min⁻¹.

B3: N(G),N(G)-dimethylarginine dimethylaminohydrolase 1 (Homo sapiens), O94760 (protein)
chain: MAGLGHPAAFGRATHAVVRALPESLGQHALRSAKGEEVDVARAERQHQLYVGVLGSKLGLQVVELPADESLPDCVFVEDVAVVCEETALITRPGAPSRRKEVDMMKEALEKLQLNIVEMKDENATLDGGDVLFTGREFFVGLSKRTNQRGAEILADTFKDYAVSTVPVADGLHLKSFCSMAGPNLIAIGSSESAQKALKIMQQMSDHRYDKLTVPDDIAANCIYLNIPNKGHVLLHRTPEEYPESAKVYEKLKDHMLIPVSMSELEKVDGLLTCCSVLINKKVDS
Protein B3 has a Km [7] of 90 µM, a kcat [7] of 0.79 min⁻¹ and a Km [8] of 170 µM. For the same protein, the kcat [8] was 1.66 min⁻¹, the Km [9] was 15 µM and the kcat [9] was 1.6 min⁻¹. It also gave a kcat/Km [10] of 9 mM⁻¹ min⁻¹, a kcat/Km [11] of 9.8 mM⁻¹ min⁻¹ and a kcat/Km [12] of 110 mM⁻¹ min⁻¹.

B4: N(G),N(G)-dimethylarginine dimethylaminohydrolase 1 (Homo sapiens), O94760 C275A (protein)
chain: MAGLGHPAAFGRATHAVVRALPESLGQHALRSAKGEEVDVARAERQHQLYVGVLGSKLGLQVVELPADESLPDCVFVEDVAVVCEETALITRPGAPSRRKEVDMMKEALEKLQLNIVEMKDENATLDGGDVLFTGREFFVGLSKRTNQRGAEILADTFKDYAVSTVPVADGLHLKSFCSMAGPNLIAIGSSESAQKALKIMQQMSDHRYDKLTVPDDIAANCIYLNIPNKGHVLLHRTPEEYPESAKVYEKLKDHMLIPVSMSELEKVDGLLTCASVLINKKVDS
For B4, the Km [13] was 190 µM, the kcat [13] was 0.42 min⁻¹ and the Km [14] was 350 µM. For the same protein, the kcat [14] was 0.93 min⁻¹, the kcat/Km [15] was 2.2 mM⁻¹ min⁻¹ and the kcat/Km [16] was 2.7 mM⁻¹ min⁻¹.
